The source of these data is US20020160975A1, “Conserved XIAP-interaction motif in caspase-9 and Smac/DIABLO for mediating apoptosis” (Thomas Jefferson University, priority 2001, published 2002).

Data set [1] addresses T1, XIAP (Homo sapiens, UniProt P98170).
T1 construct: made in house; host or cells: in vitro translation (cell-free)
Put plainly: Cytochrome c-dependent caspase-3 activation in 293T S100 extracts containing XIAP (DEVD-AMC). The class given is biochemical. Conditions: 25, 100 and 500 μM peptide, XIAP 10 nM, cytochrome c and dATP. The protocol:
The activity of caspase-3 in the S100 extracts was measured using the peptide substrate DEVD-AMC.

Data set [2] addresses T1, XIAP. Briefly: Far Western blot analysis with 35S-labeled XIAP. It is filed as binding. Conditions: for binding of XIAP by Far Western: proteins on nitrocellulose membrane, denatured and renatured; for ability to interact with BIR3 (Far western, FIG. 12B): recombinant caspase-9 mutants.
In another data set the target is T2, full length XIAP (Homo sapiens, UniProt P98170).
T2 construct: full length XIAP or the isolated BIR3 domain of XIAP; made in house; host or cells: in vitro translation (cell-free)
Put plainly: In vitro interaction assay of GST fusion proteins with 35S-labeled XIAP. The following applies: for interaction with full length XIAP: C-terminal GST fusion proteins immobilized onto glutathione-affinity resin. The class given is binding. The source says: (§1) The C-terminal GST fusion proteins were expressed in bacteria and then immobilized onto glutathione-affinity resin. […] The caspase-9 deletion mutants used in these studies are represented by bar diagrams above the panel in FIG. 10.

Data set [3] concerns the target T3, isolated BIR3 domain of XIAP (Homo sapiens, UniProt P98170).
T3 construct: full length XIAP or the isolated BIR3 domain of XIAP; made in house; host or cells: in vitro translation (cell-free)
Put plainly: In vitro interaction assay of GST fusion proteins with 35S-labeled BIR3. The class given is binding. The following applies: for interaction with isolated BIR3 domain of XIAP: C-terminal GST fusion proteins immobilized onto glutathione-affinity resin.
Text: as §1

For data set [4], the target named is T4, E314S mutant BIR3 domain of XIAP (Homo sapiens, UniProt P98170, E314S).
T4 construct: made in house
Briefly: Interaction of GST fusion proteins with 35S-labeled E314S mutant BIR3. The class given is binding. Conditions: compared with WT BIR3.
Text: as §1

The target in data set [5] is T5, isolated BIR3 domain of XIAP (UniProt P98170 238-358, limits assumed).
T5 construct: domain: BIR3; In vitro translated 35S-labeled BIR3 in pull-downs; purified XIAP-BIR3 in enzyme assays; also called XIAP-BIR3; WT BIR3
Briefly: method not stated.

For data set [6], the target named is T6, isolated BIR3 domain of XIAP, P98170.
T6 chain: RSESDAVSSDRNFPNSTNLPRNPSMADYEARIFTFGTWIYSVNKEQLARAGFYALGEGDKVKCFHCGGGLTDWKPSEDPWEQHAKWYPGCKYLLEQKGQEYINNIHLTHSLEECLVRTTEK

Data set [7] deals with T7, X-linked inhibitor of apoptosis protein (XIAP), full length (UniProt P98170 1-497).
T7 construct: Used as in vitro translated 35S-labeled full length XIAP (pull-down, Far western) or as purified XIAP (holoenzyme experiments); also called full length XIAP; 35S-labeled XIAP
Briefly: gel filtration on Superose 6 and immunoblot of fractions. A general note: In gel filtration, larger molecules generally elute earlier.

Data set [8] has as its target T7, X-linked inhibitor of apoptosis protein …. Briefly: Far western with 35S-labeled XIAP.
The mark [9] stands for this setting: less than p12 and linker peptide.

For the molecule ATPFQ (listed as Homo sapiens) [p12-N5], the “promoting caspase-3 activation in XIAP containing extracts” value with XIAP [1] was “as effective in promoting caspase-3 activation as the Smac-N5 or N7 peptides”.

B1: p12: C-terminal GST fusion protein of Caspase-9-p12 (residues 316-416 of SEQ ID NO:1) (protein)
chain: ATPFQEGLRTFDQLDAISSLPTPSDIFVSYSTFPGFVSWRDPKSGSWYVETLDDIFEQWAHSEDLQSLLLRVANAVSVKGIYKQMPGCFNFLRKKLFFKTS
modifications: left off: a dimerising Fc or GST
Turning to B1, the “binding of XIAP by Far Western” value with XIAP [2] is listed as “able to bind”. In addition, in the data set with full length XIAP, the “interaction with full length XIAP” value was “able to interact”. For the same molecule, in [3], the “interaction with isolated BIR3 domain of XIAP” value is listed as “able to interact”. In addition, the “binding to E314S mutant BIR3” value in data set [4] was “abrogated binding”.

B2: Smac-GST: mature Smac/DIABLO GST-fusion protein (protein)
chain: AVPIAQKSEPHSLSSEALMRRAVSLVTDSTSTFLSQTTYALIEAITEYTKAVYTLTSLYRQYTSLLGKMNSEEEDEVWQVIIGARAEMTSKHQEYLKLETTWMTAVGLSEMAAEAAYQTGADQASITARNHIQLVKLQVEEVHQLSRKAETKLAEAQIEELRQKTQEEGEERAESEQEAYLRED
modifications: left off: a dimerising Fc or GST
notes: mature Smac/DIABLO GST-fusion protein
In the case of B2, in the data set with XIAP [2], the “binding of XIAP by Far Western” value is “able to bind”. Besides, in [4], the “binding to E314S mutant BIR3” value is on record as “abrogated binding”.
A word on the Kd: it is the constant that tells how readily two partners part at equilibrium. Low values mean tighter binding, high ones weaker binding. ATPFQEGLRTFDQLD [chemically synthesized caspase-9 linker peptide (ATPFQEGLRTFDQLD)] gave a Kd in [5] of 550 nM.

B3: caspase-9 linker deletion mutant (residues 316 to 330 of SEQ ID NO:1 deleted) (protein)
chain 1: MDEADRRLLRRCRLRLVEELQVDQLWDALLSRELFRPHMIEDIQRAGSGSRRDQARQLIIDLETRGSQALPLFISCLEDTGQDMLASFLRTNRQAAKLSKPTLENLTPVVLRPEIRKPEVLRPETPRPVDIGSGGFGDVGALESLRGNADLAYILSMEPCGHCLIINNVNFCRESGLRTRTGSNIDCEKLRRRFSSLHFMVEVKGDLTAKKMVLALLELAQQDHGALDCCVVVILSHGCQASHLQFPGAVYGTDGCPVSVEKIVNIFNGTSCPSLGGKPKLFFIQACGGEQKDHGFEVASTSPEDESPGSNPEPD
chain 2: AISSLPTPSDIFVSYSTFPGFVSWRDPKSGSWYVETLDDIFEQWAHSEDLQSLLLRVANAVSVKGIYKQMPGCFNFLRKKLFFKTS
As for B3, in data set [6], the “DEVD-AMC cleaving activity in S100 extracts with or without XIAP-BIR3 (20 nM)” value was “the deletion of the linker region did not inhibit enzymatic activity, even in the presence of XIAP-BIR3”.

B4: p10-GST: C-terminal GST fusion protein of caspase-9 p10 (residues 331-416 of SEQ ID NO:1) (protein)
chain: AISSLPTPSDIFVSYSTFPGFVSWRDPKSGSWYVETLDDIFEQWAHSEDLQSLLLRVANAVSVKGIYKQMPGCFNFLRKKLFFKTS
modifications: left off: a dimerising Fc or GST
For the molecule B4, in the data set with XIAP [2], the “binding of XIAP by Far Western” value is on record as “not able to bind”. Further, the “interaction with full length XIAP” value in the data set with full length XIAP is listed as “only weakly”. Further, the “interaction with full length XIAP, fold less” value with full length XIAP (setting [9]) is on record as 50 to 100 fold. Besides, the “interaction with isolated BIR3 domain of XIAP” value in [3] was “only weakly”. Besides, the “interaction with BIR3 domain, fold less” value in [3] (setting [9]) is reported as 50 to 100 fold.

B5: fully processed wild-type (WT) caspase-9 (enzyme)
chain 1: MDEADRRLLRRCRLRLVEELQVDQLWDALLSRELFRPHMIEDIQRAGSGSRRDQARQLIIDLETRGSQALPLFISCLEDTGQDMLASFLRTNRQAAKLSKPTLENLTPVVLRPEIRKPEVLRPETPRPVDIGSGGFGDVGALESLRGNADLAYILSMEPCGHCLIINNVNFCRESGLRTRTGSNIDCEKLRRRFSSLHFMVEVKGDLTAKKMVLALLELAQQDHGALDCCVVVILSHGCQASHLQFPGAVYGTDGCPVSVEKIVNIFNGTSCPSLGGKPKLFFIQACGGEQKDHGFEVASTSPEDESPGSNPEPD
chain 2: ATPFQEGLRTFDQLDAISSLPTPSDIFVSYSTFPGFVSWRDPKSGSWYVETLDDIFEQWAHSEDLQSLLLRVANAVSVKGIYKQMPGCFNFLRKKLFFKTS
notes: Procaspase-9 overexpressed in E. coli, completely processed into p35 and p12 (greater than 90% at Asp315, about 10% at Asp330 giving p10, minor at Glu306); also called wild type caspase-9; processed caspase-9; not shown: C-terminal 6-Histidine tag from pET-21c or pET-28a
B5: in data set [7], the binding result is listed as “binds”.

B6: single mutant (D315A) caspase-9 (enzyme)
chain: MDEADRRLLRRCRLRLVEELQVDQLWDALLSRELFRPHMIEDIQRAGSGSRRDQARQLIIDLETRGSQALPLFISCLEDTGQDMLASFLRTNRQAAKLSKPTLENLTPVVLRPEIRKPEVLRPETPRPVDIGSGGFGDVGALESLRGNADLAYILSMEPCGHCLIINNVNFCRESGLRTRTGSNIDCEKLRRRFSSLHFMVEVKGDLTAKKMVLALLELAQQDHGALDCCVVVILSHGCQASHLQFPGAVYGTDGCPVSVEKIVNIFNGTSCPSLGGKPKLFFIQACGGEQKDHGFEVASTSPEDESPGSNPEPAATPFQEGLRTFDQLDAISSLPTPSDIFVSYSTFPGFVSWRDPKSGSWYVETLDDIFEQWAHSEDLQSLLLRVANAVSVKGIYKQMPGCFNFLRKKLFFKTS
notes: also called caspase-9 D315A
For the molecule B6, the binding result in [8] is on record as “no binding”. In addition, the “binding of XIAP by Far Western” value with XIAP [2] is “not able to bind”.

B7: GG: caspase-9 with first two p12 residues Ala-Thr mutated to Gly-Gly (protein, UniProt P55211 1-416, looked up, variant A316G T317G)
chain: MDEADRRLLRRCRLRLVEELQVDQLWDALLSRELFRPHMIEDIQRAGSGSRRDQARQLIIDLETRGSQALPLFISCLEDTGQDMLASFLRTNRQAAKLSKPTLENLTPVVLRPEIRKPEVLRPETPRPVDIGSGGFGDVGALESLRGNADLAYILSMEPCGHCLIINNVNFCRESGLRTRTGSNIDCEKLRRRFSSLHFMVEVKGDLTAKKMVLALLELAQQDHGALDCCVVVILSHGCQASHLQFPGAVYGTDGCPVSVEKIVNIFNGTSCPSLGGKPKLFFIQACGGEQKDHGFEVASTSPEDESPGSNPEPDGGPFQEGLRTFDQLDAISSLPTPSDIFVSYSTFPGFVSWRDPKSGSWYVETLDDIFEQWAHSEDLQSLLLRVANAVSVKGIYKQMPGCFNFLRKKLFFKTS
Turning to B7, the “ability to interact with BIR3 (Far western, FIG. 12B)” value with XIAP [2] is reported as “lost significantly the ability to interact”.

B8: double mutant (D315/D330A) caspase-9 (enzyme)
chain: MDEADRRLLRRCRLRLVEELQVDQLWDALLSRELFRPHMIEDIQRAGSGSRRDQARQLIIDLETRGSQALPLFISCLEDTGQDMLASFLRTNRQAAKLSKPTLENLTPVVLRPEIRKPEVLRPETPRPVDIGSGGFGDVGALESLRGNADLAYILSMEPCGHCLIINNVNFCRESGLRTRTGSNIDCEKLRRRFSSLHFMVEVKGDLTAKKMVLALLELAQQDHGALDCCVVVILSHGCQASHLQFPGAVYGTDGCPVSVEKIVNIFNGTSCPSLGGKPKLFFIQACGGEQKDHGFEVASTSPEDESPGSNPEPAATPFQEGLRTFDQLAAISSLPTPSDIFVSYSTFPGFVSWRDPKSGSWYVETLDDIFEQWAHSEDLQSLLLRVANAVSVKGIYKQMPGCFNFLRKKLFFKTS
notes: also called caspase-9 D315/330A
In the case of B8, the binding result in data set [8] is “no binding”. The “binding of XIAP by Far Western” value with XIAP [2] was “not able to bind”.

B9: SG: caspase-9 with first two p12 residues Ala-Thr mutated to Ser-Gly (protein, UniProt P55211 1-416, looked up, variant A316S T317G)
chain: MDEADRRLLRRCRLRLVEELQVDQLWDALLSRELFRPHMIEDIQRAGSGSRRDQARQLIIDLETRGSQALPLFISCLEDTGQDMLASFLRTNRQAAKLSKPTLENLTPVVLRPEIRKPEVLRPETPRPVDIGSGGFGDVGALESLRGNADLAYILSMEPCGHCLIINNVNFCRESGLRTRTGSNIDCEKLRRRFSSLHFMVEVKGDLTAKKMVLALLELAQQDHGALDCCVVVILSHGCQASHLQFPGAVYGTDGCPVSVEKIVNIFNGTSCPSLGGKPKLFFIQACGGEQKDHGFEVASTSPEDESPGSNPEPDSGPFQEGLRTFDQLDAISSLPTPSDIFVSYSTFPGFVSWRDPKSGSWYVETLDDIFEQWAHSEDLQSLLLRVANAVSVKGIYKQMPGCFNFLRKKLFFKTS
Turning to B9, in the data set with XIAP [2], the “ability to interact with BIR3 (Far western, FIG. 12B)” value is listed as “lost significantly the ability to interact”.

B10: SGVD176-179AVPF: caspase-3 with first four residues of p12 substituted with AVPF (protein)
chain 1: SGISLDNSYKMDYPEMGLCIIINNKNFHKSTGMTSRSGTDVDAANLRETFRNLKYEVRNKNDLTREEIVELMRDVSKEDHSKRSSFVCVLLSHGEEGIIFGTNGPVDLKKITNFFRGDRCRSLTGKPKLFIIQACRGTELDCGIETD
chain 2: AVPFDDMACHKIPVEADFLYAYSTAPGYYSWRNSKDGSWFIQSLCAMLKQYADKLEFMHILTRVNRKVATEFESFSFDATFHAKKQIPCIVSMLTKELYFYH
On to B10, for which the “binding of XIAP by Far Western” value in the data set with XIAP [2] is “enhanced binding”.
In data set [5], AVPIAQK [Smac-N7 peptide (AVPIAQK)] had a Kd of approximately 810 nM.
